Data published in the DeepSol protein solubility set.

Assay: soluble on expression in E. coli; label from the status in PepcDB or PDB records

Row | Sequence | soluble on expression in E. coli
1 | MSLINLKHSFGISRSSHDFYDIVYFYIVDGEIIGRGEAAPSKRYNETTEKIISVLNKGILVPENFEDADQLWEYIKPQLEGISALEAAANMAIWDWRGQKENKAVHDILGFNVSKLPATSYTISIGDMSELDEKIELSNPYSIIKVKLGTPNDDKEIISQIRQRTDKLIRVDANEGWSLDNAKEMSYWLADRNVEFIEQPFKAKMLNETRSLREFSPLPLFADENSLVSSDIPNIVDCFDGINIKLMKCGGLDEALKMIEIAKHFDMQIMLEGHHHHHH | not soluble
2 | MVSNAYQGIGSEYETLLKASGRENEVFKKRVGKDRVMATTVHGWWQETMWQRSSSLFTDGRICSCWRLSPTSSRGLQPTYQRKRDFTTGRYGKNACG | not soluble
3 | KGKKLAVIAVAEHEFNQSENNGPGSAPLDPVDNYYQIREAQAKADIVIVTIHGGNEHFHYPRPGLRKLCKHYIDLGVNAVICHHPHVPGAYEIYNGRPIVYSLGNFVFDTLSMVHEWDVGYMAKLKFNEVD | not soluble
4 | MSLKFIVIKIGGSTLSDMHPSIINNIKHLRSNNIYPIIVHGGGPFINEALSNQQIEPHFVNGLRVTDKATMTITKHTLIADVNTALVAQFNQHQCSAIGLCGLDAQLFEITSFDQQYGYVGVPTALNKDALQYLCTKFVPIINSIGFNNHDGEFYNINADTLAYFIASSLKAPIYVLSNIAGVLINDVVIPQLPLVDIHQYIEHGDIYGGMIPKVLDAKNAIENGCPKVIIASGNKPNIIESIYNNDFVGTTILNSEGHHHHHH | soluble
5 | MSLGTIIIVDDNKGVLTAVQLLLKNHFSKVITLSSPVSLSTVLREENPEVVLLDMNFTSGINNGNEGLFWLHEIKRQYRDLPVVLFTAYADIDLAVRGIKEGASDFVVKPWDNQKLLETLLNAASQAKDGKKKNRKKESSPVSAMYWGESSAMQQLRTLIEKVATTNANILITGENGTGKEMLAREIHALSPRSAESMISVDMGAITESLFESELFGHVKGSFTDAHADRTGKFEAADRSSLFLDEIGNLPFHLQAKLLTAIQQRSIVRVGSNQSIPVDIRLICATNRNLQEMVDKGLFREDLLYRINTIHVEIPPLRKRKEDIVPLAERFIARFCKQYDKASISLSPAACEKLTAHAWYGNIRELEHSIEKAVIISDGETIPAEMFQLVQKTENPETETSTLEDMEKAMIRKALDKCGGNLSAVAAQLGITRQTLYNKMKKFGLEGHHHHHH | soluble
6 | MAHHHHHHMLWAIKHTDYPTMSTGLETLDLFLENVSKSEYAEVFFKAYMQRILVDVMVASMDSLHASGFQHHVRILQKLFNVSSMVPPDTPTIGKDVIRAYLLDSLTVIPTLTTTSILSFVDTCYESFTDDERFRTQFADFLIEVKVWGAEQENKMQEEDERRLREETIPGFSNLSMEIRRQTCSPPSDPGRCADGQGRGPASVRRFHCRRHRHPSKYTCTPLSLFPLKNPSADPAVRDVRPSYFVDCVGG | not soluble
7 | MPSLFKTMAFQLKTERLELSMWEESDSVWLSKLIGERGVDIPAVDSVRNRLIEMRKKADENGISLLTIRRRDEGDFIGYCGLIIGRSTLEEPEIAYELFRSAHGKGYATEAASVVLDAAIATGRQRLWSTVGAWNIASLRVLEKIGFKRHHSTWDDERGEIVWNVRDL | not soluble
8 | MEVHAADQYLVAPGEADLLEVHARLAGTGLFPPFPPVELPGGVGGLVARGGFAQTFFFPAEVLGLTFRTPKGRRVRAGGVVVKNVQGYDLVRLFVGSFGLLGRAEEVVLRLRPGRAQAFLRRPFSGSFPRLVPTPRFLFALEDEEGPWLYAYHFGHPKEVERFREAFGGEEARPLDLRPRFPRGLGLGEGPLWDLRFRYQDGGASPPPPPAFLRLARVL | soluble
9 | MIDVRKYIDNAALKPHLSEKEIEEFVLKSEELGIYAVCVNPYHVKLASSIAKKVKVCCVIGFPLGLNKTSVKVKEAVEAVRDGAQELDIVWNLSAFKSEKYDFVVEELKEIFRETPSAVHKVIVETPYLNEEEIKKAVEICIEAGADFIKTSTGFAPRGTTLEEVRLIKSSAKGRIKVKASGGIRDLETAISMIEAGADRIGTSSGISIAEEFLKRHLILEHHHHHH | soluble
10 | MSLRDSRYYCRLFSPAAVRGGIRRISAIYLNPSAFMSSLPITDRKIRFGLVGCGRISKNHIGAIAQHGDRAELVEICDTNPEALQAAEAATGARPFSSLSDMLAQGNADALVLATPSGLHPWQAIEVAQAGRHVVSEKPMATRWEDGKRMVKACDEAGVRLFVVKQNRRNATLQLVKKAIEQGRFGRIYMVTVNVFWTRPQEYYDAARWRGKWEWDGGAFMNQASHYVDLLDWLVGPVESVYAYTATLARRIEAEDTGVAALRWRHGAMGSINVTMLTYPQNLEGSITILGEKGTVRVGGVAVNRIDEWKFAEPHPDDDKIREANYETTSVYGFGHPLYYDNVINCLRGDCEPETDGREGLQSLALLTAIYRSARDGVRIPLPLDEGHHHHHH | soluble
11 | PNSKLARFHASSGTTGKPTVVGYTHKDIDNWAESLARALTSVGVGKEDILQVSYGYGLFTGGLGAHYGSEKVGATVLPTSSGNTERQLELMKDLGTTSIACTPSYFLYMIETARKEGINIRNDTKLRKGFFGAEPWSEELKRRIEEESGIKAYDIYGTSELSGPLFTECDEQ | not soluble
12 | MGSDKIHHHHHHMANALLQKWVERAERRALFWWQPKNGGVNMGDHLSKVIVSCVLALQDKTLLEKRDLRKKLIATGSVLHFAKDGDTVWGSGINGKIPAERNTFSTLDVRAVRGPKTRAFLLERGIAVPEVYGDPGLLTPMFFPADALGPVTKRPFAIVPHFNEPVEKYSAYAEHLVFPNVKPATFMSALLGAKFVISSSLHGLILAEAYGIPAVYLDWGNGEDRFKYDDYYHGTRRMQWHAGHSVEECMELGGNGSFDLERLQAGLLAAFPYDLW | not soluble
13 | MTSIGTGYDLSNSVFSPDGRNFQVEYAVKAVENGTTSIGIKCNDGVVFAVEKLITSKLLVPQKNVKIQVVDRHIGCVYSGLIPDGRHLVNRGREEAASFKKLYKTPIPIPAFADRLGQYVQAHTLYNSVRPFGVSTIFGGVDKNGAHLYMLEPSGSYWGYKGAATGKGRQSAKAELEKLVDHHPEGLSAREAVKQAAKIIYLAHEDNKEKDFELEISWCSLSETNGLHKFVKGDLLQEAIDFAQKEINGDDDEDEDDSDNVMSSDDENAPVATNANATTDQEGDIHLE | soluble
14 | MNSIRSSPAIGENRTVYIGSYDGKLYAFNPDGTLKWSYTTGNQITGSATIGADGTICIGSYDRRLYTINPDGTLKWSYTTGNQIFSSAAIGEDGTIYVGSRDNKLYALNPDGTLKWSYTTGNQIFSSAAIGEDLEHHHHHH | not soluble
15 | MGSDKIHHHHHHMTYPKYTQQALSRYNLPRLKRIATELGVTPTGDKRAADTWVNAIIIHQSTKLQKVDNQALAQAELDSYIADQAQAIAPEPLTIVEISFDHHEYYADDKLVASISHDDSHLTQRWVVMINDKEIFRANTLMHCDRFICNHYKDGSLPVQEKEATPSTIENQIMAHIFNECQNYGFEILDDGIYNNGVKLGQVGCTDGNWWVKRRYSVQQQYSNSVLDAVRSLSMLDVSNGGKSIFDEYILDQPLEQLTGDRLQRLLERAELVTA | not soluble
16 | GPGSMSYSGRKLKYFVEDSDGWLRRNQQVAEQFVMAEDDRETKEMLSLLAPRAHFASFWGVVRGLPAAVALQAQEREHLRITWTSGLQPLTSRTFARNGYVHVLDRERMSFIPVLGPWLSSFFQRPVQELLVVREGRVVFRGMGYVWDIGKH | not soluble
17 | MGSDKIHHHHHHMNEEEDAFSYLSKLGLTPYEIKVYKTLLIYGPNSATETAKLSKVPQPRVYDIFESLESKGAVEVSPGKRKIYRAVPIDNFIDRKLIEIRDYKKRIESYIEQQKKFKESNPYLWMIKNNFQIREKMKDVINEAENELIASLNYENIRYLKKYFIDAAKRGITVVIVAFPDAELDFLRTFPEDIVIRIRRGSASQVMIADRKHGLINVESTEDSEGYALYFDENELIHILNYYFYHTIWGPSDMFHDFPVRQNIKFSTAWLSCEAIDSFFKRSYSVSGIVTGYSATGQVKIEGTITGIDLIPGFKHTFFIKDNERVYSVGGKTARMEDIKLETLTMNVWIPNKQAISQKQ | not soluble
18 | GPQLDHVDIDLTDKAAMQDGARTFANYCMGCHSAKFQRYERVATDLGIPADLMMEKLVFTGAKIGDHMDIGMKPADAKTWFGAAPPDLTLVARVRGTDWLYSYLRSFYEDPKRPWGVNNVIFPNVGMPNVLAPLQGRQVIGCKQVQVVEDGKKQFDPLTGTPLTHEACDQLTVVPKTGELNEAQFDEKVKNLVTFLAYSANPNKLASERIG | not soluble
19 | AMANIAQRPKRGPHDAAIQNILTELQNHAAAWPFLQPVNKEEVPDYYDFIKEPMDLSTMEIKLESNKYQKMEDFIYDARLVFNNCRMYNGENTSYYKYANRLEKFFNNKVKEIPEYSHLID | soluble
20 | MSLKPESPNQDDFIIITMENLALYAIFDGHGPYGHDVSNYVQKELPYMIIKNENFLKNPKEVFTKAFLNIHENIERTTNAYLDSFTNKNSDSTMSGTTATIIVHLFKEKKLYVAYVGDSRAVLGKRKNGSKQLSAVELTKDHKPNCAAEKKRILSSGGQVMKLEGDIPYRVFIKNKFYPGLAMSRAIGDTIGHQIGIIAEPDFIEVNINEDEDILVLICSDGVWEFISSEEAVNLIYEFGYNNVQDAVENLARESWDRWLNEEENIVDDITIQAIYLSEKSKYLKEGHHHHHH | not soluble
21 | MGSDKIHHHHHHMTSGLHISTSFDSGAIEVDALDHADDIRLRIRADSHADFRQWFHFRLQGAAGQACRLQFLNAGDCTYPDGWRDYRAVASYDRANWFRVPTRFDGQVLTVEFTPQHDSVWFAYFEPYPEERHLSLLATCQRSPLAKLSHLGSTVDGRDMTRVTVGQPGPGKKTIWMIARQHPGESMAEWFCEGVLQRLTGTGMWAHDPVARKLLESAVFHIVPNMNPDGSARGNLRTNAAGANLNREWMTPSPETSPEVWHVRRAIEATGCDLFFDIHGDEGLPYNFVAGSEMLPSFSEKQREEQTRFIEAFKRVTPDFQDVHGYAASKYNADALKLASKYVGHTFGCLSLTLEMPFKDNADLPDATVGWNGARSALLGTAMLEAILNFLG | not soluble
22 | IGKVGYRLGFNLSDYKSKITKYDDNATTKLLSSFYPGQVMGEIWGYIADGYYSVDDFEDTSSWKLKEGITSINGYNVRPGDVKFKNLRDDESSTNVITSGDNTFDNPGDRKVIGNTTPRYQYGINLGANYAGFDLNVILQGTGKRDYWISNVLTFPMNGDNFIPLFDGLSDYWMPKDPDNGDWTAVNPNAKYPRLYGNRGNSGSNLRQSDKYLSDASYLRIKNITLSYNLPKKWLSQIFLSQMKAFVSVENVATFTSLPSGIDPERIEWNYPAFRTVSFGINITL | not soluble
23 | MIMKNGIVYFVGAGPGDPGLLTIKGKQALKEADVILYDRLANPKLLEFASPDCQFIYCGKLPNRHFMKQKEINALLVEKALNGLTVVRLKGGDPSVFGRVGEEADALHEHGIRYEMVPGITSGIAAPLYAGIPVTHRDFASSFAMITAHDKSLKGTPNLDWEGLARSVQTLVFYMGVKNLSYICQQLISYGKSPSVPVIVIQWGTWGRQRSVKGTLENIQQKVQEHQITNPAIIVIGDIVNFQTHSWFESKPLIGRHLMVVTHGEDEDPLADKLRDSGADLIEWPKWRTENMPVNEEILRKIGTFEDVFFTSRRAVCEFFRALASQKIDIRQLTAKLSAASEQAKTELEKRGFLVTAIQPDSEKRLVVGSRHAVENMQKHESCSFYITHENVIDDRFTHMIQRTISESPLHMVICPNKLSVQQLINGGEQIGILPEPSASRPPIVCIGDDSAAGIYGFTAVQEQDELLAFIHNQHAEKKLL | not soluble
24 | MLSMPWSEIDTVLLDMDGTLLDLHYDEHFWMQHLPQRYAELHGISFAMAWLELKPLFENNAGTLNWYCLDFWSTELKLSVRDLKREIAHMIALRPDAETFLAAIKQAGKRVIMITNAHRDSLSLKMERIELAPYFERLISSHDYGFPKESQHFWDALKAETAFDPARSLFIDDTLPILRSARHFGVAHLLAVSQPNSQKGPKDTEEFAAVGDYRELIKGL | not soluble
